Data on 10 molecules can be found in publication PMC10397247.

Like-named read-outs stand apart in the source and are kept apart here.

Holding throughout (assay): two-hybrid library CCmax;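 further: natural log of median RNA to DNA barcode read ratio; higher means stronger binding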
The target of one assay is T1, 4H3697-AA.
T1 chain: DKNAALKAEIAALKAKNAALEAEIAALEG
To be noted: mean of both orientations.

For another assay, the target named is T2, 4H797-AA.
T2 chain: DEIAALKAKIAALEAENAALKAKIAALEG
The conditions noted are these: mean of both orientations.

For another assay, the target named is T3, 4H3606-AA.
T3 chain: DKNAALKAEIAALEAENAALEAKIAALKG

Another assay deals with T4, 4H697-AA.
T4 chain: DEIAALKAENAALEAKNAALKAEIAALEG
To be noted: mean of both orientations.

A further assay deals with T5, 4H982-AA.
T5 chain: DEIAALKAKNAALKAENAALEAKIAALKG
To be noted: mean of both orientations.

The target in a further assay is T6, 4H3631-AA.
T6 chain: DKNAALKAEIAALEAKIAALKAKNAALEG
To be noted: mean of both orientations.

The next assay has as its target T7, 4H3865-AA.
T7 chain: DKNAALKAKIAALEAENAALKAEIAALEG
The conditions noted are these: mean of both orientations.

The target of the next assay is T8, 4H717-AA.
T8 chain: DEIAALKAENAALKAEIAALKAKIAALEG
The conditions noted are these: mean of both orientations.

The target of the next assay is T9, 4H3718-AA.
T9 chain: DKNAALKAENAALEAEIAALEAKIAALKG

A further assay concerns the target T10, 4H2611-AA.
T10 chain: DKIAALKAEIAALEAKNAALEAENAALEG

The target in another assay is T11, 4H2725-AA.
T11 chain: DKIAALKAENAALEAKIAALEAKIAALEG
The conditions noted are these: mean of both orientations.

Another assay concerns the target T12, 4H536-AA.
T12 chain: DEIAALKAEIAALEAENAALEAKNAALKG
The conditions noted are these: mean of both orientations.

A further assay has as its target T13, 4H710-AA.
T13 chain: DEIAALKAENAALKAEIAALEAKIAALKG
The conditions noted are these: mean of both orientations.

The target in the next assay is T14, 4H850-AA.
T14 chain: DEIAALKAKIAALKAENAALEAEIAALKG
The conditions noted are these: mean of both orientations.

Another assay addresses T15, 4H891-AA.
T15 chain: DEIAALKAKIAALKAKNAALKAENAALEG
The conditions noted are these: mean of both orientations.

The target in a further assay is T16, 4H3410-AA.
T16 chain: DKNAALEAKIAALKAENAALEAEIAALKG
The conditions noted are these: mean of both orientations.

For a further assay, the target named is T17, 4H3009-AA.
T17 chain: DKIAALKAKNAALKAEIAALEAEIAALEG
To be noted: mean of both orientations.

The next assay concerns the target T18, 4H458-AA.
T18 chain: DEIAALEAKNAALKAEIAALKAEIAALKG
The conditions noted are these: mean of both orientations.

The next assay has as its target T19, 4H94-AA.
T19 chain: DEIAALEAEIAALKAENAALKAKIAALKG
To be noted: mean of both orientations.

A further assay has as its target T20, 4H745-AA.
T20 chain: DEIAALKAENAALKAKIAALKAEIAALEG
To be noted: mean of both orientations.

A further assay deals with T21, 4H3165-AA.
T21 chain: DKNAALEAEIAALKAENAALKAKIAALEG
The conditions noted are these: mean of both orientations.

A further assay addresses T22, 4H2438-AA.
T22 chain: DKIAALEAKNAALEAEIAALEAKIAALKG
To be noted: mean of both orientations.

A further assay concerns the target T23, 4H310-AA.
T23 chain: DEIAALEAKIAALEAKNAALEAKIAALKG
The conditions noted are these: mean of both orientations.

For the next assay, the target named is T24, 4H930-AA.
T24 chain: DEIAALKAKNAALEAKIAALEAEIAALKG
The conditions noted are these: mean of both orientations.

The next assay has as its target T25, 4H2253-AA.
T25 chain: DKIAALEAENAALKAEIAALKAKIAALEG
The conditions noted are these: mean of both orientations.

In a further assay the target is T26, 4H3590-AA.
T26 chain: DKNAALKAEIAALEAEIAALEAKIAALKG
To be noted: mean of both orientations.

Another assay addresses T27, 4H2274-AA.
T27 chain: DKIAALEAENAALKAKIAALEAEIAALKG
The conditions noted are these: mean of both orientations.

The target in a further assay is T28, 4H2698-AA.
T28 chain: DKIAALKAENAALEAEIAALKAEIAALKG

The next assay deals with T29, 4H570-AA.
T29 chain: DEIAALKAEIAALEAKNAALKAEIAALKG

The next assay deals with T30, 4H3130-AA.
T30 chain: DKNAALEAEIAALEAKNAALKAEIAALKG
The conditions noted are these: mean of both orientations.

A further assay has as its target T31, 4H629-AA.
T31 chain: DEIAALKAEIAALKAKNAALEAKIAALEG
To be noted: mean of both orientations.

Another assay addresses T32, 4H2330-AA.
T32 chain: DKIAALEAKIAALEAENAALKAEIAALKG
To be noted: mean of both orientations.

The target in another assay is T33, 4H2473-AA.
T33 chain: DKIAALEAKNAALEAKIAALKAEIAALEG
The conditions noted are these: mean of both orientations.

The target of the next assay is T34, 4H2865-AA.
T34 chain: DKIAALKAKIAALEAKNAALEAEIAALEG

The next assay concerns the target T35, 4H909-AA.
T35 chain: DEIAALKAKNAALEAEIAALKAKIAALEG
To be noted: mean of both orientations.

In the next assay the target is T36, 4H3016-AA.
T36 chain: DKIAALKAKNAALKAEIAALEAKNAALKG
The conditions noted are these: mean of both orientations.

The next assay concerns the target T37, 4H485-AA.
T37 chain: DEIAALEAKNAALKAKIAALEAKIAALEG
To be noted: mean of both orientations.

The next assay addresses GCN2_T.
A further assay has as its target 4H_GCN4.
The target of a further assay is T38, 4H_APH.
T38 chain: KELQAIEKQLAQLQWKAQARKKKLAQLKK

For the next assay, the target named is T39, 4H_BCR.
T39 chain: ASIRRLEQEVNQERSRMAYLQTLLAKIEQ
To be noted: mean of both orientations.

The target of another assay is T40, 4H2774-AA.
T40 chain: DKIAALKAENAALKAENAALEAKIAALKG
The conditions noted are these: mean of both orientations.

The target in a further assay is T41, 4H249-AA.
T41 chain: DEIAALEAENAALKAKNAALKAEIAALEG

Chain of 4H_GCN4 (chain, as listed by the source): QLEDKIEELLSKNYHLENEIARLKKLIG

On to DENAALKAKIAALEAKNAALEAKIAALEG [4H1845-AA], for which the interaction score in the assay with 4H3697-AA is -1.83; with 4H797-AA, -0.965; with 4H3606-AA (mean of both orientations) it was -0.353; in the assay with 4H697-AA it was -1.65; with 4H982-AA, -1.6; with 4H3631-AA it was -1.57. For the same molecule, the interaction score in the assay with 4H3865-AA is -1.31; in the assay with 4H717-AA it was -1.01; with 4H3718-AA (mean of both orientations) it was -1.65; in the assay with 4H2611-AA (mean of both orientations) it was -1.56.
DEIAALEAENAALEAKIAALKAENAALEG [4H171-AA]: the interaction score with 4H2725-AA was -1.12; with 4H536-AA it was -1.32; with 4H3697-AA, -0.767; with 4H710-AA it was 0.905; with 4H797-AA, -1.36; with 4H850-AA, -1.11. The interaction score is -0.295 with 4H891-AA; -0.741 with 4H3410-AA; 2.13 with 4H3009-AA; -0.711 in the assay with 4H458-AA; -1.72 with 4H94-AA; -1.45 with 4H745-AA. Also, the interaction score in the assay with 4H3165-AA was -1.21; with 4H2438-AA, 0.734; with 4H310-AA, -1.66; with 4H930-AA it was -1.29; with 4H2253-AA it was -1.44; with 4H3590-AA it was -0.733. For the same molecule, the interaction score with 4H2274-AA is -1.17; with 4H2698-AA, -0.616; with 4H570-AA (mean of both orientations), -0.493; with 4H3865-AA, -0.476; with 4H3130-AA, 0.164; with 4H629-AA it was -1.29. Also, the interaction score with 4H2330-AA was -2.02; with 4H2473-AA, -1.21; in the assay with 4H2865-AA, -0.997; with 4H909-AA it was -1.12; in the assay with 4H3016-AA, 1.66; with 4H485-AA it was -0.423.
In the case of DENAALEAKIAALKAKNAALKAEIAALEG [4H1401-AA], the interaction score in the assay with 4H3697-AA is -0.792; with 4H3606-AA (mean of both orientations) it was 2.07; in the assay with 4H697-AA, -1.39; in the assay with 4H982-AA, -0.483; with GCN2_T, -1.62; in the assay with 4H3631-AA, -1.4. Also, the interaction score in the assay with 4H3865-AA is 0.227; with 4H_GCN4 it was -1.67; with 4H_APH (mean of both orientations), -1.86; in the assay with 4H717-AA, -1.5; with 4H3718-AA (mean of both orientations) it was 0.196; with 4H2611-AA (mean of both orientations) it was -1.66. Further, the interaction score with 4H_BCR is -1.64.
Consider DKIAALEAEIAALKAKNAALEAKIAALEG [4H2165-AA], for which the interaction score in the assay with 4H2774-AA was -0.839; with 4H3606-AA (mean of both orientations), -0.638; with GCN2_T it was -1.41; with 4H2253-AA, -1.02; with 4H_GCN4, -1.58; with 4H249-AA (mean of both orientations), -1.16. The interaction score in the assay with 4H_APH is -1.76; with 4H717-AA, -1.25; in the assay with 4H2330-AA, -1.33; with 4H_BCR it was -0.379.
In the case of DKNAALKAEIAALEAENAALEAKIAALKG [4H3606-AA], the interaction score was 1.42 with 4H3697-AA; -0.0341 in the assay with 4H3606-AA; -0.116 in the assay with 4H697-AA; 0.00779 with 4H982-AA; -0.266 in the assay with GCN2_T; -0.831 with 4H3631-AA. In addition, the interaction score with 4H570-AA is -2.43; with 4H3865-AA, 1.86; with 4H_GCN4, -0.288; in the assay with 4H_APH (mean of both orientations) it was -1.27; with 4H717-AA, -1.65; with 4H3718-AA it was -1.15. Besides, the interaction score with 4H_BCR is -0.919.
Take DENAALEAKIAALKAEIAALEAKIAALKG [4H1350-AA]: the interaction score with GCN2_T was -1.41; with 4H3590-AA it was 2.09; with 4H_GCN4, -1.31; with 4H_APH (mean of both orientations) it was -1.67; in the assay with 4H2611-AA it was -1.74; with 4H_BCR it was -1.28.
Turning to DENAALEAENAALKAKIAALKAEIAALEG [4H1257-AA], the interaction score in the assay with 4H2774-AA is 2.09; with 4H797-AA it was -1.57; with GCN2_T, -1.92; with 4H_GCN4 it was -2.56; with 4H249-AA (mean of both orientations) it was -1.46; in the assay with 4H_APH (mean of both orientations), -1.94. The interaction score with 4H717-AA was 0.282; with 4H_BCR, -2.19.
For the molecule DENAALEAEIAALEAKIAALEAKNAALKG [4H1064-AA], the interaction score was -1.39 with 4H2774-AA and -2.06 with 4H249-AA (mean of both orientations).
As for DENAALEAENAALEAEIAALEAEIAALEG [4H1153-AA], the interaction score is -1.72 with 4H3697-AA; -0.981 with 4H3606-AA; -1.68 with 4H697-AA; -0.675 with 4H982-AA; 0.849 in the assay with 4H3631-AA; -1.67 with 4H3865-AA. The values for the interaction score with 4H717-AA, with 4H3718-AA (mean of both orientations) and in the assay with 4H2611-AA (mean of both orientations) were -1.1, 0.217 and -1.92, respectively.
As to DEIAALEAENAALKAKNAALKAEIAALEG [4H249-AA], the interaction score is 1.92 in the assay with 4H2774-AA; -1.96 with GCN2_T; -1.66 with 4H_GCN4; -0.781 with 4H249-AA; -1.97 with 4H_APH (mean of both orientations); -1.99 in the assay with 4H2611-AA (mean of both orientations). For the same molecule, the interaction score in the assay with 4H_BCR is -1.72.
